Here are results for 31 molecules from patent US20210388087A1 (Chugai, published 2021).

Sequences and labels used below:
B1: H183/L072 VL N53E (antibody, name in Kabat numbering, V domains shown)
VH: QVQLVESGGGLVQPGRSLRLSCAASGFTFSNAWMHWVRQAPGKGLEWVAQIKDKGNAYAAYYAPSVKGRFTISRDDSKNSIYLQMNSLKTEDTAVYYCHYVHYASASTVLPAFGVDAWGQGTTVTVSS
VL: DIVMTQSPLSLPVTPGEPASISCQASQELVHMNRNTYLHWYQQKPGQAPRLLIYKVSERFPGVPDRFSGSGSGTDFTLKISRVEAEDVGVYYCAQGTSVPFTFGQGTKLEIK
notes: Dual-Ig
B2: H183/L072 VL P56G (antibody, name in Kabat numbering, V domains shown)
VH: B1 VH
VL: B1 VL with E58N, P61G
notes: Dual-Ig
B3: H183/L072 VL P56I (antibody, name in Kabat numbering, V domains shown)
VH: B1 VH
VL: B1 VL with E58N, P61I
notes: Dual-Ig
B4: H183/L072 VL P56S (antibody, name in Kabat numbering, V domains shown)
VH: B1 VH
VL: B1 VL with E58N, P61S
notes: Dual-Ig
B5: H183/L072 VL N53H (antibody, name in Kabat numbering, V domains shown)
VH: B1 VH
VL: B1 VL with E58H
notes: Dual-Ig
B6: H183/L072 VL P56K (antibody, name in Kabat numbering, V domains shown)
VH: B1 VH
VL: B1 VL with E58N, P61K
notes: Dual-Ig
B7: H183/L072 VL N53M (antibody, name in Kabat numbering, V domains shown)
VH: B1 VH
VL: B1 VL with E58M
notes: Dual-Ig
B8: H183/L072 VL N53F (antibody, name in Kabat numbering, V domains shown)
VH: B1 VH
VL: B1 VL with E58F
notes: Dual-Ig
B9: H183/L072 VL P56T (antibody, name in Kabat numbering, V domains shown)
VH: B1 VH
VL: B1 VL with E58N, P61T
notes: Dual-Ig
B10: H183/L072 VL N53T (antibody, name in Kabat numbering, V domains shown)
VH: B1 VH
VL: B1 VL with E58T
notes: Dual-Ig
B11: H183/L072 VL P56N (antibody, name in Kabat numbering, V domains shown)
VH: B1 VH
VL: B1 VL with E58N, P61N
notes: Dual-Ig
B12: H183/L072 VL N53R (antibody, name in Kabat numbering, V domains shown)
VH: B1 VH
VL: B1 VL with E58R
notes: Dual-Ig
B13: H183/L072 VL P56R (antibody, name in Kabat numbering, V domains shown)
VH: B1 VH
VL: B1 VL with E58N, P61R
notes: Dual-Ig
B14: H183/L072 VL N53L (antibody, name in Kabat numbering, V domains shown)
VH: B1 VH
VL: B1 VL with E58L
notes: Dual-Ig
B15: H183/L072 VL N53V (antibody, name in Kabat numbering, V domains shown)
VH: B1 VH
VL: B1 VL with E58V
notes: Dual-Ig
B16: H183/L072 VL N53S (antibody, name in Kabat numbering, V domains shown)
VH: B1 VH
VL: B1 VL with E58S
notes: Dual-Ig
B17: H183/L072 VL N53Q (antibody, name in Kabat numbering, V domains shown)
VH: B1 VH
VL: B1 VL with E58Q
notes: Dual-Ig
B18: H183/L072 VL P56V (antibody, name in Kabat numbering, V domains shown)
VH: B1 VH
VL: B1 VL with E58N, P61V
notes: Dual-Ig
B19: H183/L072 VL N53I (antibody, name in Kabat numbering, V domains shown)
VH: B1 VH
VL: B1 VL with E58I
notes: Dual-Ig
B20: H183/L072 VL N53K (antibody, name in Kabat numbering, V domains shown)
VH: B1 VH
VL: B1 VL with E58K
notes: Dual-Ig
B21: H183/L072 VL P56F (antibody, name in Kabat numbering, V domains shown)
VH: B1 VH
VL: B1 VL with E58N, P61F
notes: Dual-Ig
B22: H183/L072 VL N53P (antibody, name in Kabat numbering, V domains shown)
VH: B1 VH
VL: B1 VL with E58P
notes: Dual-Ig
B23: H183/L072 VL P56H (antibody, name in Kabat numbering, V domains shown)
VH: B1 VH
VL: B1 VL with E58N, P61H
notes: Dual-Ig
B24: H183/L072 VL P56D (antibody, name in Kabat numbering, V domains shown)
VH: B1 VH
VL: B1 VL with E58N, P61D
notes: Dual-Ig
B25: H183/L072 VL P56A (antibody, name in Kabat numbering, V domains shown)
VH: B1 VH
VL: B1 VL with E58N, P61A
notes: Dual-Ig
B26: H183/L072 VL P56L (antibody, name in Kabat numbering, V domains shown)
VH: B1 VH
VL: B1 VL with E58N, P61L
notes: Dual-Ig
B27: H183/L072 VL P56E (antibody, name in Kabat numbering, V domains shown)
VH: B1 VH
VL: B1 VL with E58N, P61E
notes: Dual-Ig
B28: H183/L072 VL N53W (antibody, name in Kabat numbering, V domains shown)
VH: B1 VH
VL: B1 VL with E58W
notes: Dual-Ig
B29: H183/L072 VL P56Q (antibody, name in Kabat numbering, V domains shown)
VH: B1 VH
VL: B1 VL with E58N, P61Q
notes: Dual-Ig
B30: H183/L072 VL P56M (antibody, name in Kabat numbering, V domains shown)
VH: B1 VH
VL: B1 VL with E58N, P61M
notes: Dual-Ig
B31: H183/L072 VL N53G (antibody, name in Kabat numbering, V domains shown)
VH: B1 VH
VL: B1 VL with E58G
notes: Dual-Ig

Substitutions are numbered along the chain they refer to.

For this assay, the target named is T1, Human CD137 ECD (human).
T1 construct: entry includes C-terminal His-tag and biotin acceptor peptide; also called human CD137 extracellular domain; 4-1BB
T1 sequence (chain, as listed by the source limits assumed): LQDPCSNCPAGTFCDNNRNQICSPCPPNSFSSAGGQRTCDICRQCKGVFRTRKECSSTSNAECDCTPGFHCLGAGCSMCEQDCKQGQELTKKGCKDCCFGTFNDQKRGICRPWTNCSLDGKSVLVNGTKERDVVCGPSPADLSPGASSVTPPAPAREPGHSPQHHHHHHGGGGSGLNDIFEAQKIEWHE
Nature of the assay: Biacore SPR, vs parent H183/L072. In general terms: Surface plasmon resonance follows binding to a sensor surface in real time, without labels.
For the molecule B1, the “fold change of affinity” value was 0.2 fold.
In the case of B2, the “fold change of affinity” value was determined as 0.1 fold.
To B3 belongs 0.1 fold; to B4, 0.1 fold.
Turning to B5, the “fold change of affinity” value worked out at 0.5 fold.
For the molecule B6, the “fold change of affinity” value was 0 fold.
To B7 belongs 0.1 fold; to B8, 0.3 fold.
Next, B9: 0.2 fold; B10: 0 fold.
Next, B11: 0.2 fold; B12: 0.3 fold; B13: 0 fold.
Regarding B14, the “fold change of affinity” value was found to be 0.2 fold.
Turning to B15, the “fold change of affinity” value was 0.5 fold.
For the molecule B16, the “fold change of affinity” value was 0.5 fold.
For B17, the “fold change of affinity” value is 0.4 fold.
As for B18, the “fold change of affinity” value was found to be 0 fold.
To B19 belongs 0.2 fold; to B20, 0.2 fold; to B21, 0 fold.
As to B22, the “fold change of affinity” value is 0 fold.
Next, B23: 0 fold; B24: 0.2 fold; B25: 0.1 fold.
In the case of B26, the “fold change of affinity” value is 0.1 fold.
Next, B27: 0.1 fold; B28: 0 fold; B29: 0.2 fold.
As to B30, the “fold change of affinity” value was found to be 0.2 fold.
Next, B31: 0.6 fold.
